Tests used:
[1] = substrate: CC(C)=CCC/C(C)=C/CC/C(C)=C/CC/C=C(\C)CC/C=C(\C)CCC=C(C)C; assay: cells, lysate or membranes named; conditions: other: SQLE baculosome; varied squalene, saturating FAD; pH 7.0
[2] = substrate: CC(C)=CCC/C(C)=C/CC/C(C)=C/CC/C=C(\C)CC/C=C(\C)CCC=C(C)C; assay: purified protein, by the assay type; conditions: varied squalene, saturating FAD

B1: baculosome-derived full-length SQLE (Homo sapiens) (protein)
chain: MWTFLGIATFTYFYKKFGDFITLANREVLLCVLVFLSLGLVLSYRCRHRNGGLLGRQQSGSQFALFSDILSGLPFIGFFWAKSPPESENKEQLEARRRRKGTNISETSLIGTAACTSTSSQNDPEVIIVGAGVLGSALAAVLSRDGRKVTVIERDLKEPDRIVGEFLQPGGYHVLKDLGLGDTVEGLDAQVVNGYMIHDQESKSEVQIPYPLSENNQVQSGRAFHHGRFIMSLRKAAMAEPNAKFIEGVVLQLLEEDDVVMGVQYKDKETGDIKELHAPLTVVADGLFSKFRKSLVSNKVSVSSHFVGFLMKNAPQFKANHAELILANPSPVLIYQISSSETRVLVDIRGEMPRNLREYMVEKIYPQIPDHLKEPFLEATDNSHLRSMPASFLPPSSVKKRGVLLLGDAYNMRHPLTGGGMTVAFKDIKLWRKLLKGIPDLYDDAAIFEAKKSFYWARKTSHSFVVNILAQALYELFSATDDSLHQLRKACFLYFKLGGECVAGPVGLLSVLSPNPLVLIGHFFAVAIYAVYFCFKSEPWITKPRALLSSGAVLYKACSVIFPLIYSEMKYMVH
Km [1]: 3.3 ± 0.7 µM
kcat [1]: 0.0233 s⁻¹
kcat/Km [1]: 7080 M⁻¹ s⁻¹

B2: endogenous SQLE in human liver microsomes (Homo sapiens) (protein)
chain: MWTFLGIATFTYFYKKFGDFITLANREVLLCVLVFLSLGLVLSYRCRHRNGGLLGRQQSGSQFALFSDILSGLPFIGFFWAKSPPESENKEQLEARRRRKGTNISETSLIGTAACTSTSSQNDPEVIIVGAGVLGSALAAVLSRDGRKVTVIERDLKEPDRIVGEFLQPGGYHVLKDLGLGDTVEGLDAQVVNGYMIHDQESKSEVQIPYPLSENNQVQSGRAFHHGRFIMSLRKAAMAEPNAKFIEGVVLQLLEEDDVVMGVQYKDKETGDIKELHAPLTVVADGLFSKFRKSLVSNKVSVSSHFVGFLMKNAPQFKANHAELILANPSPVLIYQISSSETRVLVDIRGEMPRNLREYMVEKIYPQIPDHLKEPFLEATDNSHLRSMPASFLPPSSVKKRGVLLLGDAYNMRHPLTGGGMTVAFKDIKLWRKLLKGIPDLYDDAAIFEAKKSFYWARKTSHSFVVNILAQALYELFSATDDSLHQLRKACFLYFKLGGECVAGPVGLLSVLSPNPLVLIGHFFAVAIYAVYFCFKSEPWITKPRALLSSGAVLYKACSVIFPLIYSEMKYMVH
Km ([2]; other: HLMs): 2.9 ± 0.2 µM

B3: recombinant N-terminally truncated SQLE (118–574) (Homo sapiens) (protein)
chain: TSSQNDPEVIIVGAGVLGSALAAVLSRDGRKVTVIERDLKEPDRIVGEFLQPGGYHVLKDLGLGDTVEGLDAQVVNGYMIHDQESKSEVQIPYPLSENNQVQSGRAFHHGRFIMSLRKAAMAEPNAKFIEGVVLQLLEEDDVVMGVQYKDKETGDIKELHAPLTVVADGLFSKFRKSLVSNKVSVSSHFVGFLMKNAPQFKANHAELILANPSPVLIYQISSSETRVLVDIRGEMPRNLREYMVEKIYPQIPDHLKEPFLEATDNSHLRSMPASFLPPSSVKKRGVLLLGDAYNMRHPLTGGGMTVAFKDIKLWRKLLKGIPDLYDDAAIFEAKKSFYWARKTSHSFVVNILAQALYELFSATDDSLHQLRKACFLYFKLGGECVAGPVGLLSVLSPNPLVLIGHFFAVAIYAVYFCFKSEPWITKPRALLSSGAVLYKACSVIFPLIYSEMKYMVH
Km ([2]; other: SQLE (118–574), pH 8.0): 1.9 ± 0.4 µM
kcat ([2]; other: SQLE (118–574), pH 8.0): 0.0348 s⁻¹
kcat/Km ([2]; other: SQLE (118–574), pH 8.0): 18300 M⁻¹ s⁻¹
